# Results reported in US8435961B2, “Methods and compositions for increasing the activity of inhibitory RNA” (Massachusetts Institute of Technology, priority 2009, dated 2013).
# B1: PARP13: PARP13 overexpressed from a pEGFP-C1 plasmid (protein)
# chain: ADPEVCCFITKILCAHGGRMALDALLQEIALSEPQLCEVLQVAGPDRFVVLETGGEAGITRSVVATTRARVCRRKYCQRPCDNLHLCKLNLLGRCNYSQSERNLCKYSHEVLSEENFKVLKNHELSGLNKEELAVLLLQSDPFFMPEICKSYKGEGRQQICNQQPPCSRLHICDHFTRGNCRFPNCLRSHNLMDRKVLAIMREHGLNPDVVQNIQDICNSKHMQKNPPGPRAPSSHRRNMAYRARSKSRDRFFQGSQEFLASASASAERSCTPSPDQISHRASLEDAPVDDLTRKFTYLGSQDRARPPSGSSKATDLGGTSQAGTSQRFLENGSQEDLLHGNPGSTYLASNSTSAPNWKSLTSWTNDQGARRKTVFSPTLPAARSSLGSLQTPEAVTTRKGTGLLSSDYRIINGKSGTQDIQPGPLFNNNADGVATDITSTRSLNYKSTSSGHREISSPRIQDAGPASRDVQATGRIADDADPRVALVNDSLSDVTSTTSSRVDDHDSEEICLDHLCKGCPLNGSCSKVHFHLPYRWQMLIGKTWTDFEHMETIEKGYCNPGIHLCSVGSYTINFRVMSCDSFPIRRLSTPSSVTKPANSVFTTKWIWYWKNESGTWIQYGEEKDKRKNSNVDSSYLESLYQSCPRGVVPFQAGSRNYELSFQGMIQTNIASKTQKDVIRRPTFVPQWYVQQMKRGPDHQPAKTSSVSLTATFRPQEDFCFLSSKKYKLSEIHHLHPEYVRVSEHFKASMKNFKIEKIKKIENSELLDKFTWKKSQMKEEGKLLFYATSRAYVESICSNNFDSFLHETHENKYGKGIYFAKDAIYSHKNCPYDAKNVVMFVAQVLVGKFTEGNITYTSPPPQFDSCVDTRSNPSVFVIFQKDQVYPQYVIEYTEDKACVIS
# Tested on: RNAi activity in 293T cells
# Test: Modified pGL4.72[hRlucCP] vector luciferase assay of RNAi activity
# Type: cell-based
# Settings: overexpression from pEGFP-C1, 10 nM vector-target RNAi, 48 hours, vs EGFP- and G3BP-overexpressing cells (FIG. 30)
# Source text: Assays for measuring RNAi activity in a cell are available in the art. For example, psiCHECK™-1, psiCHECK™-2, and pGL4.72[hRlucCP]™ vector assay systems provide methods for the measurement of RNAi activity in a cell. In these assays systems, luciferase is used a primary reporter gene and a target sequence (i.e., the target of one or more RNAi molecules) is cloned a multiple cloning region located downstream of the luciferase translational stop codon. Initiation of the RNAi process towards the target gene results in the cleavage and subsequent degradation of the fusion mRNA encoded by the vectors (i.e., upon treatment of the transfected cell with a vector-target RNAi molecule). Measurement of decreased luciferase activity in the transfected cells following treatment with the vector-target RNAi indicates the activity of RNAi in the cell. […]
# Additional experiments were performed to determine the effect of PARP13 knockdown on miRNA activity. […] In a second set of experiments, the ability of the vector-target RNAi to reduce the expression of luciferase was measured in 293T cells transfected with pGL4.72[hRlucCP]™ vector, 20 nM vector-target RNAi, and 20 nM of negative RNAi control for PARP13 siRNA (siNeg; AllStars Negative Control siRNA; Qiagen Catalog No. 1027280) or PARP13 siRNA (siPARP13; SEQ ID NO: 40) following treatment with 0 or 30 nM pateamine A for 2 hours. […]
molecule,measurement,value
B1,decrease in the level of miRNA-mediated repression compared to control cells,3 fold
